Read-outs that look alike come from different tables or passages of the source.
Key:
[1] = tested on: mRNA transcribed from the transgene cassette; test: Quantigene analysis of transgene mRNA expression in leaf samples; conditions: normalized to maize housekeeping genes, average of eight samples
Description: Leaf samples were collected from the plants containing transgene cassettes encoding MON-HT1, MON-HT2, and MON-HT8 with and without CTP sequences to determine expression of the mRNA transcribed from the transgene cassette encoding the engineered proteins. Quantigene® analysis was done on the leaf sample extracts to determine mRNA expression of the transgene cassette. For these assays, the probe was to the common 3′-UTR sequence present in each expression cassette used to generate the transgenic plants. Relative expression was calculated by normalizing to maize housekeeping genes. A leaf sample was collected from each of eight plants for each construct configuration used to make the transgenic plants, and the reported relative mRNA expression data is an average of the eight samples with standard error.

[2] = enzyme activity assay at 23° C. with purified enzyme; assay type: biochemical; conditions: wild-type set at 100%
Experimental: The enzyme activity of MON-HT protein variants with haloxyfop, fenoxaprop, fluazifop, and dichlorprop as substrates was determined using the enzyme activity assay conducted at 23° C. with purified enzyme. The activity was recorded as the maximum activity as a percentage of the wild-type enzyme's activity, which was set at 100%.

[3] = kinetic analysis, non-endpoint assay at 23° C.; assay type: biochemical; conditions: standard error in parenthetical
Method in brief: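 Purified C-terminal 6-His-tagged recombinant enzymes expressed in bacteria; quizalofop-P or 2,4-D as substrate. Vmax reported as specific activity (umol herbicide product mg enzyme-1 min-1) and Km as mM herbicide substrate, with standard error.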

[4] = assay type: physicochemical; conditions: buffer
Method in brief: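 Thermal shift assay: purified enzyme in 30 mM Tris pH7.5, 150 mM NaCl, with or without 50 uM Fe2+ and 1.0 mM aKG. Unfolding followed by SYPRO orange fluorescence from 10° C. to 95° C. in 0.5° C. steps; melting temperature (T1/2) taken from the curve.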

F1 hybrid maize plants = test: trait efficacy field trial, quizalofop-P pressure screening, F1 hybrid; assay type: in vivo; conditions: crop injury percentage; for 4X Qizalofop-P CIPV4 / 4X Qizalofop-P CIPV8: 0.32 lb ai/acre at VE-V2, V4, V8; for 8X Qizalofop-P CIPV4 / 8X Qizalofop-P CIPV8: 0.64 lb ai/acre at VE-V2, V4, V8; for 16X Qizalofop-P CIPV4 / 16X Qizalofop-P CIPV8: 1.28 lb ai/acre at VE-V2, V4, V8
Experimental: Separate trait efficacy field trials for quizalofop-P and 2,4-D pressure screening were conducted at one location each with F1 hybrid transgenic plants produced by crossing an inbred plant containing maize event MON89034 with an R1 plant containing MON-HT1, MON-HT2, MON-HT8, MON-HT9, and MON-HT10 with and without operably linked CTP sequences. Transgenic F1 hybrid plants containing maize events NK603×MON89034 were used for comparison as a control.
In the trait efficacy field trial for quizalofop-P tolerance, one of three herbicide treatments was used: (1) quizalofop-P (Assure II) at 0.32 lb ai/acre (4×) plus 0.25% v/v non-ionic surfactant (NIS) applied at VE-V2 growth stage followed by the same at V4 growth stage followed by the same at V8 growth stage; (2) quizalofop-P at 0.64 lb ai/acre (8×) plus 0.25% v/v NIS applied at VE-V2 growth stage followed by the same at V4 growth stage followed by the same at V8 growth stage; or (3) quizalofop-P at 1.28 lb ai/acre (16×) plus 0.25% v/v NIS applied at VE-V2 growth stage followed by the same at V4 growth stage followed by the same at V8 growth stage. Plots were visually rated as above. […] The injury rating for the control plants after all quizalofop-P application was 100%. Error was calculated using LSD (0.05).

B1: MON-HT2: engineered oxygenase protein, amino acid sequence SEQ ID NO:18 (protein)
chain: MHAALTPLTNKYRFIDVQPLTGVLGAEITGVDLREPLDDSTWNEILDAFHTYQVIYFPGQAITNEQHIAFSRRFGPVDPVPLLKSIEGYPEVQMIRREANESSRVIGDDWHSDSTFLDAPPAAVVMRAIEVPEYGGDTGFLSMYSAWETLSPTMQATIEGLNVVHSATKVFGSLYQATNWRFSNTSVKVMDVDAGDRETVHPLVVTHPVTGRRALYCNQVYCQKIQGMTDAESKSLLQFLYEHATKFDFTCRVRWKKDQVLVWDNLCTMHRAAPDYAGKFRYLTRTTVAGDKPSR
Relative Expression ([1]; CTP A): 6.96
Relative Expression ([1]; CTP B): 6.16
Relative Expression ([1]; CTP C): 4.11
Relative Expression ([1]; no CTP): 4.66
maximum activity as a percentage of the wild-type enzyme's activity, Dichlorprop [2]: 92%
Vmax Quizalofop ([3]; 23° C., purified His-tagged protein): 1.41 (−0.11) umol herbicide product mg enzyme-1 min-1
Km ([3]; 23° C., purified His-tagged protein, read-out: Km Quizalofop): 410 µM
Vmax 2,4-D ([3]; NDB = activity not robust enough for kinetic characterization): 0.23 (−0.01) umol herbicide product mg enzyme-1 min-1
Km ([3]; NDB = activity not robust enough for kinetic characterization, read-out: Km 2,4-D): 40 µM
T1/2, temperature where 50% of the protein was unfolded, Buffer plus Fe2+ and aKG [4]: 58 °C
T1/2, temperature where 50% of the protein was unfolded, Buffer ([4]; pH 7.5): 55 °C
4X Qizalofop-P CIPV4 (F1 hybrid maize plants; CTP A): 0
4X Qizalofop-P CIPV8 (F1 hybrid maize plants; CTP A): 5
8X Qizalofop-P CIPV4 (F1 hybrid maize plants; CTP A): 2.5
8X Qizalofop-P CIPV8 (F1 hybrid maize plants; CTP A): 7.5
16X Qizalofop-P CIPV4 (F1 hybrid maize plants; CTP A): 5
16X Qizalofop-P CIPV8 (F1 hybrid maize plants; CTP A): 15
4X Qizalofop-P CIPV4 (F1 hybrid maize plants; CTP B): 0
4X Qizalofop-P CIPV8 (F1 hybrid maize plants; CTP B): 5
8X Qizalofop-P CIPV4 (F1 hybrid maize plants; CTP B): 0
8X Qizalofop-P CIPV8 (F1 hybrid maize plants; CTP B): 10
16X Qizalofop-P CIPV4 (F1 hybrid maize plants; CTP B): 0
16X Qizalofop-P CIPV8 (F1 hybrid maize plants; CTP B): 20
4X Qizalofop-P CIPV4 (F1 hybrid maize plants; CTP C): 0
4X Qizalofop-P CIPV8 (F1 hybrid maize plants; CTP C): 5
8X Qizalofop-P CIPV4 (F1 hybrid maize plants; CTP C): 5
8X Qizalofop-P CIPV8 (F1 hybrid maize plants; CTP C): 12.5
16X Qizalofop-P CIPV4 (F1 hybrid maize plants; CTP C): 12.5
16X Qizalofop-P CIPV8 (F1 hybrid maize plants; CTP C): 20
4X Qizalofop-P CIPV4 (F1 hybrid maize plants; no CTP): 35
4X Qizalofop-P CIPV8 (F1 hybrid maize plants; no CTP): 45
8X Qizalofop-P CIPV4 (F1 hybrid maize plants; no CTP): 50
8X Qizalofop-P CIPV8 (F1 hybrid maize plants; no CTP): 37.5
16X Qizalofop-P CIPV4 (F1 hybrid maize plants; no CTP): 70
16X Qizalofop-P CIPV8 (F1 hybrid maize plants; no CTP): 55

Source: US12723255B2, “Herbicide tolerance genes and methods of use thereof” (priority 2014, dated 2026)
